Results as given in PMC7984218.

T1: Dna2405N (UniProt P38859)
T1 sequence: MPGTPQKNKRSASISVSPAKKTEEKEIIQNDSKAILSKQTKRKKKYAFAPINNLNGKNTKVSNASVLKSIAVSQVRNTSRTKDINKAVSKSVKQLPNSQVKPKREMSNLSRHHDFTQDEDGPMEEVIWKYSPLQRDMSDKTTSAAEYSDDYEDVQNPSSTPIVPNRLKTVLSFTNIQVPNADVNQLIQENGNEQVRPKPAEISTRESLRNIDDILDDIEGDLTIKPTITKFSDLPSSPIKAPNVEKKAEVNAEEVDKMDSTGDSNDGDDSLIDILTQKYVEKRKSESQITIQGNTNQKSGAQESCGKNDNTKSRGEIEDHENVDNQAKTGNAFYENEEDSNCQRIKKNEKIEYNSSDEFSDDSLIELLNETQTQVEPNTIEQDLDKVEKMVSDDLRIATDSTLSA

T2: GST-Dna2405N-5A-His6 (UniProt P38859 1-405, K41A;R42A;K43A;K44A;K45A)
T2 sequence: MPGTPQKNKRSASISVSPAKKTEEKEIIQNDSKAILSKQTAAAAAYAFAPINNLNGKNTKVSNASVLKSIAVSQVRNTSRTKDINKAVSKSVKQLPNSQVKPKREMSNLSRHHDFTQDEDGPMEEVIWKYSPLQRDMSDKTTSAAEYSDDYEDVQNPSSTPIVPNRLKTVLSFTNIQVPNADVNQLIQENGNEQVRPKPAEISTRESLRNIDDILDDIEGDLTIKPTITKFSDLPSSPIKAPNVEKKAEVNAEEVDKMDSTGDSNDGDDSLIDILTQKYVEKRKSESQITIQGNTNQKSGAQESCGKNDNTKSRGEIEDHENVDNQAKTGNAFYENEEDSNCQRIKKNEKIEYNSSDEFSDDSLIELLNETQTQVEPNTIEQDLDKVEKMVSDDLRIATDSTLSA


Columns and labels:
[1] = target: T1, Dna2405N; experiment: competition
[2] = target: T2, GST-Dna2405N-5A-His6; experiment: EMSA

Row | Molecule | binding signal (% inhibition of Hairpin binding) [1] | binding result [2]
1 | M13mp18 viral DNA (sscDNA) | > 80 | 
2 | Hairpin (standard 5' hairpin flap; oligos 1, 2, 5) (structured_DNA) DNA 1: GAAAACATTATTAATGGCGTCGAGCTAGGCACAAGGCGAACTGCTAACGG DNA 2: CCGTTAGCAGTTCGCCTTGTGCCTA DNA 3: GCGCATGTGCGTTCCGTCCGGTTCAAGCCGCAGCGGCTTGAACCGGACGCTCGACGCCATTAATAATGTTTTC |  | no binding
